The record followed here is patent US20050003400A1 (Amgen, published 2005).

B1: recombinant human OPG [22-201]-Fc fusion protein (Fc fusion, UniProt O00300 22-201, looked up)
chain: ETFPPKYLHYDEETSHQLLCDKCPPGTYLKQHCTAKWKTVCAPCPDHYYTDSWHTSDECLYCSPVCKELQYVKQECNRTHNRVCECKEGRYLEIEFCLKHRSCPPGFGVVQAGTPERNTVCKRCPDGFFSNETSSKAPCRKHTNCSVFGLLLTQKGNATHDNICSGNSESTQKCGIDVTL
notes: construct described in U.S. Ser. No. 08/706,945; also called OPG-Fc; OPG Fc fusion protein; not shown: human IgG1 Fc domain
B2: murine OPG binding protein (full length, 316 aa, encoded by clone 32D-F3), on the cell surface (ligand)
chain: MRRASRDYGKYLRSSEEMGSGPGVPHEGPLHPAPSAPAPAPPPAASRSMFLALLGLGLGQVVCSIALFLYFRAQMDPNRISEDSTHCFYRILRLHENAGLQDSTLESEDTLPDSCRRMKQAFQGAVQKELQHIVGPQRFSGAPAMMEGSWLDVAQRGKPEAQPFAHLTINAASIPSGSHKVTLSSWYHDRGWAKISNMTLSNGKLRVNQDGFYYLYANICFRHHETSGSVPTDYLQLMVYVVKTSIKIPSSHNLMKGGSTKNWSGNSEFHFYSINVGGFFKLRAGEEISIQVSNPSLLDPDQDATYFGAFKVQDID
notes: Type II transmembrane protein; also called OPGbp; OPG-bp
B3: chimeric ATAR extracellular domain-Fc fusion protein (Fc fusion, UniProt Q92956 39-202, looked up)
chain: LPSCKEDEYPVGSECCPKCSPGYRVKEACGELTGTVCEPCPPGTYIAHLNGLSKCLQCQMCDPAMGLRASRNCSRTENAVCGCSPGHFCIVQDGDHCAACRAYATSSPGQRVQKGGTESQDTLCQNCPPGTFSPNGTLEECQHQTKCSWLVTKAGAGTSSSHWV
notes: extracellular domain; also called sATAR-Fc; ATAR-Fc fusion protein; not shown: human IgG1 Fc domain
B4: recombinant mouse OPG [22-194]-Fc fusion protein (Fc fusion, UniProt O08712 22-194, looked up)
chain: ETLPPKYLHYDPETGHQLLCDKCAPGTYLKQHCTVRRKTLCVPCPDHSYTDSWHTSDECVYCSPVCKELQSVKQECNRTHNRVCECEEGRYLEIEFCLKHRSCPPGSGVVQAGTPERNTVCKKCPDGFFSGETSSKAPCIKHTNCSTFGLLLIQKGNATHDNVCSGNREATQK
notes: also called OPG-Fc; not shown: Fc domain, detected with anti-human IgG

Test [1] concerns the target B2. Briefly: staining of 32D cells with 5 ug/ml OPG-Fc and PE anti-human IgG, FACS.
In a further test the target is T1, purified human IgG1 Fc (human, UniProt P01857-1 104-330 = IgG part, limits assumed).
T1 construct: domain: Fc
The test can be described thus: staining of 32D cells, FACS. As for the experimental part:
Cell lines that grew as adherent cultures in vitro were treated using the following methods: Cells were plated into 24 well tissue culture plates (Falcon), then allowed to grow to approximately 80% confluency. The growth media was then removed, and the adherent cultures were washed with phosphate buffered saline (PBS) (Gibco) containing 1% fetal calf serum (FCS). […] The OPG-Fc fusion protein solution was discarded, and the cells were washed in PBS-FCS solution as described above. The cultures were then exposed to phycoeyrthrin-conguated goat F(ab′) anti-human IgG secondary antibody (Southern Biotechnology Associates Cat. # 2043-09) diluted into PBS-FCS. After a 30-45 min incubation at 0° C., the solution was discarded, and the cultures were washed as described above. The cells were then analyzed by immunofluorescent microscopy to detect cell lines which express a cell surface OPG binding protein.
Suspension cell cultures were analyzed in a similar manner with the following modifications: The diluent and wash buffer consisted of calcium- and magnesium-free phosphate buffered saline containing 1% FCS. […] The cells were then analyzed by fluorescence activated cell sorting (FACS) using a Becton Dickinson FACscan.

Test [2] addresses B2. Briefly: immunostaining of COS-7 cells transfected with 32D-F3. As for the experimental part:
Arrayed pools of 32D cDNA expression library were individually lipofected into COS-7 cultures, then assayed for the acquisition of a cell surface OPG binding protein. To do this, COS-7 cells were plated at a density of 1×10⁶ per ml in six-well tissue culture plates (Costar), then cultured overnight in DMEM (Gibco) containing 10% FCS. Approximately 2 μg of plasmid DNA from each pool was diluted into 0.5 ml of serum-free DMEM, then sterilized by centrifugation through a 0.2 μm Spin-X column (Costar). Simultaneously, 10 μl of Lipofectamine (Life Technologies Cat # 18324-012) was added to a separate tube containing 0.5 ml of serum-free DMEM. The DNA and Lipofectamine solutions were mixed, and allowed to incubate at RT for 30 min. The COS-7 cell cultures were then washed with serum-free DMEM, and the DNA-lipofectamine complexes were exposed to the cultures for 2-5 hr at 37° C. After this period, the media was removed, and replaced with DMEM containing 10% FCS. The cells were then cultured for 48 hr at 37° C.
Using this approach, a total of approximately 300,000 independent 32D cDNA clones were screened, represented by 300 transfected pools of 1000 clones each. A single well was identified that contained cells which acquired the ability to be specifically decorated by the OPG-Fc fusion protein. […]

Take B1: the binding result in test [1] is listed as “binds”. Regarding B2, in the test with purified human IgG1 Fc, the binding result is recorded as “no binding”.

Consider B3, for which the binding result in test [2] is given as “no binding”.

As to B4, the binding result in test [1] was “binds”.
